Test results taken from PMC8642555 (Nature Communications, 2021).
Positions count from the first letter of the chain named. Names and notes keep the numbering of the source. One block for each molecule: values may come before it.

How the values were obtained:
[1] = molecular target: IgE; experiment: binding kinetics (method not named in the legend or citing paragraphs; Supplementary Fig. 1e); conditions: parent: est. 2.8e-3 s-1; read off a plot
[2] = molecular target: bIgE-Fc2–4:FcεRIα-Ova complex (UniProt P12319); experiment: bead-based disruption assay; conditions: parent: est. 20 µM; read off a plot
[3] = molecular target: IgE; experiment: binding studies with purified scFvs (method not given; Supplementary Fig. 3c); conditions: read off a plot; for koff: parent: est. 2.5e-3; for kon: parent: est. 1.0e6
[4] = molecular target: disulfide locked IgE-Fc2–4(G335C):FcεRIα(W156C) complex (UniProt P12319); experiment: BLI; single cycle kinetics; locked complex captured on Ni-NTA tips, coupled with EDC/NHS, nickel chelated with EDTA; anti-IgE agents in a twofold serial dilution from 1600 nM to 100 nM; 2:1 SCK binding model (Clamp-XP)
[5] = molecular target: FcεRI (Homo sapiens) (UniProt P12319); conditions: cited from earlier work
[6] = molecular target: T1, biotinylated-IgE-Fc2–4 (human, biotin (Sulfo-NHS-LC-Biotin)); experiment: BLI; Octet-Red 96; biotin-labeled human IgE on streptavidin tips (~0.5 nm); serial dilution of anti-IgE agents from the lowest concentration (single cycle kinetics); 1:1 SCK model; conditions: both partners purified
T1 construct: IgE heavy chain constant region, human, Fc fragment with the domains Cε2, Cε3 and Cε4; the results speak of the KD for free IgE-Fc2–4; also called bIgE-Fc2–4; biotin-IgE-Fc2–4; source: labelled with Sulfo-NHS-LC-Biotin
T1 chain: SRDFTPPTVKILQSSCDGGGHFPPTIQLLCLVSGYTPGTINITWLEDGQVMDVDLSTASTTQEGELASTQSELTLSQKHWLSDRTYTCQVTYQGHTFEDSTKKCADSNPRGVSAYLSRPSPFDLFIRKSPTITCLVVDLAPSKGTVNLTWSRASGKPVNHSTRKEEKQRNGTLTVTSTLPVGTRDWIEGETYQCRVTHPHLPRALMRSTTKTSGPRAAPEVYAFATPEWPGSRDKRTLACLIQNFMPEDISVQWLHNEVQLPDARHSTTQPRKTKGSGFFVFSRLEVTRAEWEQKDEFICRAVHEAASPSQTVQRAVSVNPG

[7] = molecular target: T2, biotinylated IgE-Fc2–4 (Homo sapiens, UniProt P01854, biotin (Sulfo-NHS-LC-Biotin labelling)); experiment: BLI; Octet-Red 96; biotin-labeled human IgE immobilised on streptavidin tips (~0.5 nm); serial dilution of anti-IgE agents from the lowest concentration (single-cycle kinetics); 1:1 SCK binding model; conditions: both partners purified
T2 construct: human IgE heavy chain constant region, Fc fragment with the domains Cε2 to Cε4 (IgE-Fc2–4); PDB 2Y7Q is a cited IgE-Fc2–4:FcεRIα structure and may be another construct; also called bIgE-Fc2–4; biotin-IgE-Fc2–4

[8] = molecular target: T1, biotinylated-IgE-Fc2–4; experiment: bead-based disruption assay (flow cytometry of beads); FcεRIα-Ova coupled polystyrene beads loaded with 500 nM biotin-IgE-Fc2–4 and washed; serial dilution of anti-IgE agent, 30 min, room temperature, 900 rpm; fixed; remaining bIgE-Fc2–4 stained with PE/Cy5-streptavidin; ID50 from dose response fit; conditions: both partners purified
[9] = molecular target: T3, biotinylated IgE-Fc2–4 (human, UniProt P01854 106-427, biotin (Sulfo-NHS-LC-Biotin labelling)); experiment: BLI; Octet-Red 96; biotin-labeled human IgE immobilised on streptavidin tips (~0.5 nm); serial dilution of anti-IgE agents from the lowest concentration (single-cycle kinetics); 1:1 SCK binding model; conditions: both partners purified
T3 construct: human IgE heavy chain constant region, Fc fragment with the domains Cε2 to Cε4 (IgE-Fc2–4); PDB 2Y7Q is a cited IgE-Fc2–4:FcεRIα structure and may be another construct; also called bIgE-Fc2–4; biotin-IgE-Fc2–4

[10] = molecular target: Biotinylated full length recombinant IgE (human) (UniProt P01854); experiment: BLI; biotinylated full length recombinant IgE on streptavidin (SA) tips; single cycle kinetics, five 100 s associations, four 100 s dissociations and a final 600 s dissociation; analyte in two-fold serial dilutions from 50 nM to 1.56 nM; Octet Red 96; 1:1 SCK model in BiaEvaluation 3.0
Biotinylated full length recombinant IgE (human), sequence (P01854 whole entry, looked up): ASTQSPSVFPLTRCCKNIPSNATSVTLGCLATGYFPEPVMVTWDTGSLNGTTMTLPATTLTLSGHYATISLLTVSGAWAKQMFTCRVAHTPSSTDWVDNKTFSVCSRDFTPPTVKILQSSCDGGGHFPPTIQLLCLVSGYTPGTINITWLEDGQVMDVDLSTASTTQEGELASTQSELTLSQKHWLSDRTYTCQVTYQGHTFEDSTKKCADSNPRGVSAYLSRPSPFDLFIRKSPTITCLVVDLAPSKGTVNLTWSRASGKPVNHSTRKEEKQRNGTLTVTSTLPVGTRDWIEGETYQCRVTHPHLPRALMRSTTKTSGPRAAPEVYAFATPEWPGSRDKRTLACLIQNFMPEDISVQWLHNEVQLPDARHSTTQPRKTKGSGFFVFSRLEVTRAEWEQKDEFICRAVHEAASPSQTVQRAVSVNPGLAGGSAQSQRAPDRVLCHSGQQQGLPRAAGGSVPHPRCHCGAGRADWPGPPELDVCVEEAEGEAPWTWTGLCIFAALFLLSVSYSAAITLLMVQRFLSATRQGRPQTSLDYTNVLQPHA

bIgE-Fc2–4:FcεRIα-Ova complex, sequence (P12319 whole entry, looked up, tested part not stated, one chain of several): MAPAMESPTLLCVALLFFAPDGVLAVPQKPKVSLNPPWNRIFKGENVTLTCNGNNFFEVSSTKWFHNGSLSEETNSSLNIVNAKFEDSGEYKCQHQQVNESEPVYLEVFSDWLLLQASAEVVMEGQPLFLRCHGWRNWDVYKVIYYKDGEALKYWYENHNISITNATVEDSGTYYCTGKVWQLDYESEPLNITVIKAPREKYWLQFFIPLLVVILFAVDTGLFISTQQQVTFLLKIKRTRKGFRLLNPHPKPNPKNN
FcεRI (Homo sapiens), sequence (P12319 26-257): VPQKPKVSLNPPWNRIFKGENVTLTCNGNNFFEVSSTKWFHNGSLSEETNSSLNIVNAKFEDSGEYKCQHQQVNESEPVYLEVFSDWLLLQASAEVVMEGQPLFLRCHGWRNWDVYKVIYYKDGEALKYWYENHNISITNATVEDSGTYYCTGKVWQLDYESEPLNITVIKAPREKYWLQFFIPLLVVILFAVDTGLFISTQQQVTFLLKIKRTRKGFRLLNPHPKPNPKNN

koff [1]: 0.013 s⁻¹
other: ID50 [2]: 40000 nM
Molecule: omalizumab single chain variable fragment (scFv) scFvCC (cysteines for a disulfide bond at the VH:VL interface; positions not printed)

koff [3]: 0.002 s⁻¹
kon [3]: 1e+06 M⁻¹ s⁻¹
Molecule: omalizumab single chain variable fragment (scFv) VH:G15D; VH:I52V; VL:Y31S

KD of the high affinity site (2:1 model) [4]: 2.86 nM
KD of the low affinity site (2:1 model) [4]: 25.8 nM
Molecule: HAE scFv (high-affinity omalizumab variant)

koff [3]: 0.0016 s⁻¹
kon [3]: 2e+06 M⁻¹ s⁻¹
Molecule: omalizumab single chain variable fragment (scFv) VH:G15D; VH:A41T; VH:I52V; VH:D74G; VH:R98K; VH:S100N; VH:H101N; VL:Q27K; VL:Y31S; VL:K46R

koff [3]: 0.00026 s⁻¹
kon [3]: 1.7e+06 M⁻¹ s⁻¹
Molecule: omalizumab single chain variable fragment (scFv) VH:S28N; VH:T53K; VH:D55S; VH:S57E; VH:N59K; VL:Q27K; VL:S28P; VL:Y31G; VL:D32E; VL:M37L

Molecule: IgE (from UniProt P01854)
Kd [5]: 0.1 nM

binding result [6]: binds
B1: clone 16 scFv (scFv, V domains shown)
VH: EVQLVESGGGLVQPDGSLRLSCAVSGYNITSGYSWNWIRQTPGKGLEWVASVTYDGSTNYNPSVKGRITISRDGSKNTFYLQMNSLRAEDTAVYYCAKGNNYFGHWHFAVWGQGTLVTVSS
VL: DIQLTQSPSSLSASVGDRVTITCRASKPVDGEGDSYLNWYQQKPGKAPKLLIYAASYLESGVPSRFSGSGSGTYFTLTISSLQPEDFATYYCQQSHEDPYTFGQGTKVEIK
notes: VH of clone 16, from a shuffled library of C02 and HAE; most clones used the C02-VH with sporadic further mutations; VL of clone 16, from a shuffled library of C02 and HAE; most clones used the HAE-VL with sporadic further mutations

binding result [6]: binds
B2: clone A4 scFv (scFv, V domains shown)
VH: B1 VH
VL: B1 VL with Y74G
notes: VH of clone A4, from a shuffled library of C02 and HAE; most clones used the C02-VH with sporadic further mutations; VL of clone A4, from a shuffled library of C02 and HAE; most clones used the HAE-VL with sporadic further mutations

Kd [7]: 0.581 nM
koff [7]: 0.00104 s⁻¹
kon [7]: 1.79e+06 M⁻¹ s⁻¹
B3: clone 7 scFv (C02 with VL D74H) (scFv, V domains shown)
VH: B1 VH
VL: B1 VL with P28S, G31S, E32D, L37M, K46R, Y74H
notes: as the scFv of C02 (Sm8), identical to it beyond D74H in the E-strand of the VL domain; cryo-EM structure with the locked IgE-Fc2–4:FcεRIα complex solved here; D74 counts on the VL domain

Kd [7]: 0.377 nM
koff [7]: 0.000565 s⁻¹
kon [7]: 1.5e+06 M⁻¹ s⁻¹
B4: clone A4 scFv (shuffled C02/HAE omalizumab variant with VL D74G) (scFv, V domains shown)
VH: B1 VH
VL: B1 VL with Y74G
notes: from a shuffled library of C02 (Sm8) and HAE (Sm7); D74G in the E-strand of VL; D74 counts on the VL domain

fold increase of ID50 against C02 [8]: 5 fold
B5: clone 7 scFv (scFv, V domains shown)
VH: B1 VH
VL: B1 VL with P28S, G31S, E32D, L37M, K46R, Y74H
notes: VH as the VH of C02; VL as the VL of C02 with D74H in the E-strand; Identical to C02 beyond D74H

Kd [7]: 0.308 nM
koff [7]: 0.000448 s⁻¹
kon [7]: 1.45e+06 M⁻¹ s⁻¹
B6: clone 16 scFv (shuffled C02/HAE omalizumab variant with VL D74Y) (scFv, V domains shown)
VH: B1 VH
VL: B1 VL
notes: from a shuffled library of C02 (Sm8) and HAE (Sm7); D74Y in the E-strand of VL; D74 counts on the VL domain

Kd [9]: 1.18 nM
koff [9]: 0.00212 s⁻¹
kon [9]: 1.79e+06 M⁻¹ s⁻¹
Kd [10]: 1.18 nM
koff [10]: 0.00212 s⁻¹
kon [10]: 1.79e+06 M⁻¹ s⁻¹
B7: DARPin E2_79 (designed binder)
chain: MRGSHHHHHHGSDLGKKLLEAARAGQDDEVRILTANGADVNANDYWGHTPLHLAAMLGHLEIVEVLLKNGADVNATGNTGRTPLHLAAWADHLEIVEVLLKHGADVNAQDKFGKTAFDISIDNGNEDLAEILQKL
